Data taken from publication PMC5714172.

Target: MBP-Hsmar1 transposase (human)
Assay: SEC; Superdex 200 10/300 GL, GF buffer (25 mM HEPES pH 7.5, 200 mM NaCl, 2 mM DTT, 5 mM EDTA, 0.1% Triton X-100 reduced); ^MBPHsmar1 after increasing Factor Xa proteolysis (1 ug protease per 50 ug fusion protein)

stoichiometry N: 2
Substance: MBP-Hsmar1 transposase (enzyme)
